Here are results for one protein from paper PMC3308694 (The Journal of Cell Biology, 2012).

The series concerns the molecule itself. The series can be described thus: SEC.

B1: CC^95–303 with the E191A + K192A mutation (domain or fragment, S. cerevisiae, UniProt Q00402 95-303, looked up)
chain: KDMNFTLELSENLLVECRKLQSSNEAKNEQIKSLKQIKESLSDKIEELTNQKKSFMKELDSTKDLNWDLESKLTNLSMECRQLKELKKKTEKSWNDAAESLKLLKTDLEILTLTKNGMENDLSSQKLHYDKEISELKERILDLNNENDRLLISVSDLTSEINSLQSNRTERIKIQKQLDDAKASISSLKRKVQKKYYQKQHTSDTTVTS
As for B1, the binding result is listed as “binds”.
